Measurements: patent EP4596580A1 (Staidson (Beijing) Biopharmaceuticals Co., Ltd., dated 2025)
Like-named read-outs stand apart in the source and are kept apart here.

T1: His-human LIGHT (human)
T1 chain: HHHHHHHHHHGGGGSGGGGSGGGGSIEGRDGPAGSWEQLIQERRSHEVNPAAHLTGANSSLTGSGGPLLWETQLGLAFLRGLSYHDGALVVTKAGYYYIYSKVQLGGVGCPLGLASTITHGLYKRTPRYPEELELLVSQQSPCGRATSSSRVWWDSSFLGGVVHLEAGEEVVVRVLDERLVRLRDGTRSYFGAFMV

T2: His-cynomolgus monkey LIGHT (cynomolgus monkey)
T2 construct: also called His-cynoLIGHT
T2 chain: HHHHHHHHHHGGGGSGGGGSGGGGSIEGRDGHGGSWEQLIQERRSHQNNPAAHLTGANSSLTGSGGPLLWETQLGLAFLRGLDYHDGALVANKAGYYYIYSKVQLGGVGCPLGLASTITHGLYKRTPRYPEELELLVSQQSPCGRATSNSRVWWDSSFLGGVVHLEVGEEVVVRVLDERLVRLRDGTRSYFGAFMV

T3: His-mouse LIGHT (mouse)
T3 construct: also called His-musLIGHT
T3 chain: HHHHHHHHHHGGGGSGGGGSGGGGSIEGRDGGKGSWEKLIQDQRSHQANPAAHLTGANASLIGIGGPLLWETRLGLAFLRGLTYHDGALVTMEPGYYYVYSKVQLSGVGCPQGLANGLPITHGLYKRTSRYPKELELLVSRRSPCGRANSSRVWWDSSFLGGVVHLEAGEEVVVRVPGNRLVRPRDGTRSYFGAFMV


How the values were obtained:
His-human LIGHT [1] = molecular target: T1, His-human LIGHT; experiment: cell-based or functional assay
[2] = molecular target: T4, LIGHT on the surface of HEK293-LIGHT stable cells (human, UniProt O43557 1-240); experiment: cell-based or functional assay
His-human LIGHT [3] = molecular target: T1, His-human LIGHT; experiment: cell-based or functional assay
His-human LIGHT [4] = molecular target: T1, His-human LIGHT; experiment: cell-based or functional assay
His-human LIGHT [5] = molecular target: T1, His-human LIGHT; experiment: ELISA, His-huLIGHT coated
[6] = molecular target: T2, His-cynomolgus monkey LIGHT; experiment: ELISA, His-cynoLIGHT coated
hFc-human LIGHT [7] = molecular target: T5, hFc-human LIGHT (human); experiment: competition ELISA, LTβR-His coated, hFc-huLIGHT added
T5 construct: also called hFc-huLIGHT

His-human LIGHT [8] = molecular target: T1, His-human LIGHT; experiment: cell-based or functional assay
His-human LIGHT [9] = molecular target: T1, His-human LIGHT; experiment: cell-based or functional assay
[10] = molecular target: T4, LIGHT on the surface of HEK293-LIGHT …; experiment: cell-based or functional assay; remark: listed apart in the source
His-human LIGHT [11] = molecular target: T1, His-human LIGHT; experiment: cell-based or functional assay
His-human LIGHT [12] = molecular target: T1, His-human LIGHT; experiment: ELISA, His-huLIGHT coated
hFc-human LIGHT [13] = molecular target: T5, hFc-human LIGHT; experiment: competition ELISA, LTβR-His coated, hFc-huLIGHT added; remark: listed apart in the source
His-mouse LIGHT = molecular target: T3, His-mouse LIGHT; experiment: ELISA, His-musLIGHT coated
His-human LIGHT [14] = molecular target: T1, His-human LIGHT; experiment: cell-based or functional assay
[15] = molecular target: T4, LIGHT on the surface of HEK293-LIGHT …; experiment: cell-based or functional assay; remark: listed apart in the source
His-human LIGHT [16] = molecular target: T1, His-human LIGHT; experiment: cell-based or functional assay
His-human LIGHT [17] = molecular target: T1, His-human LIGHT; experiment: ELISA, His-huLIGHT coated
[18] = molecular target: T2, His-cynomolgus monkey LIGHT; experiment: ELISA, His-cynoLIGHT coated
hFc-human LIGHT [19] = molecular target: T5, hFc-human LIGHT; experiment: competition ELISA, LTβR-His coated, hFc-huLIGHT added; remark: listed apart in the source

Row | Binder | IC50, LTβR NF-κB luciferase reporter, free LIGHT (His-human LIGHT [1]) [nM] | IC50, LTβR NF-κB luciferase reporter, HEK293-LIGHT cells [2] [nM] | IC50, LIGHT induced MMP-9 production in BEAS-2B bronchial epithelial cells (His-human LIGHT [3]) [µg/mL] | IC50, proliferation of CD3+ T cells stimulated by plate-bound anti-CD3 and His-huLIGHT (CellTiter Glo) (His-human LIGHT [4]) [µg/mL] | EC50 (His-human LIGHT [5]) [nM] | EC50 [6] [nM] | IC50 (hFc-human LIGHT [7]) [nM] | IC50, HVEM NF-κB luciferase reporter, free LIGHT (His-human LIGHT [8]) [nM] | IC50, LTβR NF-κB luciferase reporter, free LIGHT (His-human LIGHT [9]) [nM] | IC50, LTβR NF-κB luciferase reporter, HEK293-LIGHT cells [10] [nM] | IC50, HVEM NF-κB luciferase reporter, free LIGHT (His-human LIGHT [11]) [nM] | EC50 (His-human LIGHT [12]) [nM] | IC50 (hFc-human LIGHT [13]) [nM] | binding result (His-mouse LIGHT) | IC50, LTβR NF-κB luciferase reporter, free LIGHT (His-human LIGHT [14]) [nM] | IC50, LTβR NF-κB luciferase reporter, HEK293-LIGHT cells [15] [nM] | IC50, HVEM NF-κB luciferase reporter, free LIGHT (His-human LIGHT [16]) [nM] | EC50 (His-human LIGHT [17]) [nM] | EC50 [18] [nM] | IC50 (hFc-human LIGHT [19]) [nM]
1 | hum_LT-m37-13 (antibody, human IgG4, V domains shown, humanized from LT-m37) VH: QVQLVQSGAEVKKPGASVKVSCKASGYSFTGYFINWVRQAPGQGLEWIGRIYPYNVDTFYNQNFKGRVTMTADKSTSTAYMELSSLRSEDTAVYYCGRGTHYYGSSGAMDYWGQGTLVTVSS VL: EIVLTQSPATLSVSPGERATLSCKASQNVGTAVAWYQQKPGQSPRLLIYSASNRYTGIPARFSGSGSGTEFTLTISSLQSEDFAVYFCQQYSSYPYTFGGGTKVEIK | 0.227 | 0.867 | 0.358 | 0.311 | 0.0422 | 0.104 | 0.867 | – | – | – | – | – | – | – | – | – | – | – | – | –
2 | hum_LT-m37-15 (antibody, human IgG4, V domains shown, humanized from LT-m37) VH: QVQLVQSGAEVKKPGASVKVSCKASGYSFTGYFINWVRQAPGQGLEWIGRIYPYNVDTFYNQNFKGRATMTADKSTSTAYMELSSLRSEDTAVYYCGRGTHYYGSSGAMDYWGQGTLVTVSS VL: EIVLTQSPATLSVSPGERATLSCKASQNVGTAVAWYQQKPGQSPRLLIYSASNRYTGIPARFSGSGSGTEFTLTISSLQSEDFAVYYCQQYSSYPYTFGGGTKVEIK | 0.219 | 1.28 | 0.197 | 0.195 | 0.0658 | 0.13 | 0.844 | 0.12 | – | – | – | – | – | – | – | – | – | – | – | –
3 | hum_LT-m37-16 (antibody, human IgG4, V domains shown, humanized from LT-m37) VH: QVQLVQSGAEVKKPGASVKVSCKASGYSFTGYFINWVRQAPGQGLEWIGRIYPYNVDTFYNQNFKGRVTMTADKSTSTAYMELSSLRSEDTAVYYCGRGTHYYGSSGAMDYWGQGTLVTVSS VL: EIVLTQSPATLSVSPGERATLSCKASQNVGTAVAWYQQKPGQSPRLLIYSASNRYTGIPARFSGSGSGTEFTLTISSLQSEDFAVYYCQQYSSYPYTFGGGTKVEIK | 0.158 | 2.55 | 0.305 | 0.385 | 0.0369 | 0.104 | 0.808 | 0.179 | – | – | – | – | – | – | – | – | – | – | – | –
4 | hum_LT-m37-14 (antibody, human IgG4, V domains shown, humanized from LT-m37) VH: QVQLVQSGAEVKKPGASVKVSCKASGYSFTGYFINWVRQAPGQSLEWIGRIYPYNVDTFYNQNFKGRATLTADKSTSTAYMELSSLRSEDTAVYYCGRGTHYYGSSGAMDYWGQGTLVTVSS VL: EIVLTQSPATLSVSPGERATLSCKASQNVGTAVAWYQQKPGQSPRLLIYSASNRYTGIPARFSGSGSGTEFTLTISSLQSEDFAVYYCQQYSSYPYTFGGGTKVEIK | 0.182 | 1.86 | 0.352 | 0.332 | 0.0464 | 0.104 | 1.02 | 0.161 | – | – | – | – | – | – | – | – | – | – | – | –
5 | hum_LT-m58-1 (antibody, human IgG4, V domains shown, humanized from LT-m58) VH: QVQLVQSGAEVKKPGASVKVSCKASGYTFIDHIMNWVRKAPGQGLEWMGRIYPVSGETNYNQKFMGRATFTVDRSTSTVYMELSSLRSEDTAVYYCGRGSYYWNAMDYWGQGTLVTVSS VL: EIVMTQSPATLSVSPGERATLSCKASQSVDFDGDSYMNWYQQKPGQPPRLLIYSASNLESGIPARFSGSGSGTEFTLTISSLQSEDFAVYYCQQSIEDPWTFGQGTKLEIK | – | – | – | – | – | – | – | – | 0.183 | 8.06 | 0.0933 | 0.0141 | 0.291 | – | – | – | – | – | – | –
6 | hum_LT-m85-3 (antibody, human IgG4, V domains shown, humanized from LT-m85) VH: QVQLVQSGAEVKKPGASVKVSCKASGYTFTSYNVHWVRQAPGQGLEWIGAVYPGNGDTSYNQKFKGRATLTADKSTSTVYMELSSLRSEDTAVYYCARGSYYYTSSYFDHWGQGTLVTVSS VL: EIVMTQSPATLSVSPGERATLSCKASQSVDFDGDSYMNWYQQKPGQPPRLLIYTASNLESGIPARFSGSGSGTEFTLTISSLQSEDFAVYYCQQSYEDPFTFGQGTKLEIK | – | – | – | – | – | – | – | – | – | – | – | – | – | no binding | 0.159 | 4.68 | 0.564 | 0.00869 | 0.0155 | 0.282
7 | hum_LT-m85-1 (antibody, human IgG4, V domains shown, humanized from LT-m85) VH: QVQLVQSGAEVKKPGASVKVSCKASGYTFTSYNVHWVRQAPGQGLEWIGAVYPGNGDTSYNQKFKGRATLTADKSTSTVYMELSSLRSEDTAVYYCARGSYYYTSSYFDHWGQGTLVTVSS VL: EIVLTQSPATLSVSPGERATLSCKASQSVDFDGDSYMNWYQQKPGQPPRLLIYTASNLESGIPARFSGSGSGTEFTLTISSLQSEDFAVYYCQQSYEDPFTFGQGTKLEIK | – | – | – | – | – | – | – | – | – | – | – | – | – | no binding | 0.649 | 4.24 | 0.33 | 0.0123 | 0.0089 | 0.274
8 | hum_LT-m85-4 (antibody, human IgG4, V domains shown, humanized from LT-m85) VH: QVQLVQSGAEVKKPGASVKVSCKASGYTFTSYNVHWVRQAPGQGLEWIGAVYPGNGDTSYNQKFKGRATLTADKSTSTAYMELSSLRSEDTAVYYCARGSYYYTSSYFDHWGQGTLVTVSS VL: EIVMTQSPATLSVSPGERATLSCKASQSVDFDGDSYMNWYQQKPGQAPRLLIYTASNLESGIPARFSGSGSGTEFTLTISSLQSEDFAVYYCQQSYEDPFTFGQGTKLEIK | – | – | – | – | – | – | – | – | – | – | – | – | – | no binding | 0.253 | 2.56 | 0.454 | 0.0127 | 0.0033 | 0.308
9 | hum_LT-m85-2 (antibody, human IgG4, V domains shown, humanized from LT-m85) VH: QVQLVQSGAEVKKPGASVKVSCKASGYTFTSYNVHWVRQAPGQGLEWMGAVYPGNGDTSYNQKFKGRATLTADKSTSTAYMELSSLRSEDTAVYYCARGSYYYTSSYFDHWGQGTLVTVSS VL: EIVMTQSPATLSVSPGERATLSCKASQSVDFDGDSYMNWYQQKPGQPPRLLIYTASNLESGIPARFSGSGSGTEFTLTISSLQSEDFAVYYCQQSYEDPFTFGQGTKLEIK | – | – | – | – | – | – | – | – | – | – | – | – | – | no binding | 0.0613 | 6.02 | 0.209 | 0.0131 | 0.0142 | 0.265
